Results reported in patent publication US6436691B1, “Chemical compounds” (Zeneca Limited, priority 1995, dated 2002).
Residue numbers refer to the chain shown, from its start. Names and notes keep the numbering of the source.

What was measured:
[1] = Km and kcat of recombinant HCPB against Hipp-Arg, spectrophotometric assay; assay type: biochemical; settings: Hipp-Arg 0.75-[…]; CPB 1 μg/ml; 37° C.; pH 7.5
Experimental: Purified human CPB, produced as described in Reference Example 12, was assayed for its ability to convert hippuryl-L-arginine (Hipp-Arg; Sigma) to hippuric acid using a spectrophotometric assay.
(§1) Measurements were carried out at 37° C. in 0.25 mM Tris HCl buffer, pH 7.5 using 1 cm path length cuvettes in a total volume of 1.0 ml using a Perkin Elmer Lambda 2 spectrophotometer. Km and Vmax values were calculated using the ENZFITTER software programme (Biosoft, Perkin Elmer). Kcat was calculated from Vmax by dividing by the enzyme concentration in the reaction mixture.

[2] = Conversion of Hipp-Asp to hippuric acid by mutant and native human CPB, HPLC assay (Example 6); assay type: biochemical; settings: 5 hr at 37° C.; 4 μg enzyme; 0.5 mM substrate
Experimental: (§2) Purified mutants of human CPB (D253K and D253R; Examples 1-3) and native human CPB, produced as described in Reference Example 12, were assayed for their ability to convert either hippuryl-L-aspartic acid (Hipp-Asp—Reference Example 2), hippuryl-L-glutamic acid (Hipp-Glu—Reference Example 1) or hippuryl-L-arginine (Sigma Chemical Company—cat no. H6625) to hippuric acid using a HPLC based assay.
(§3) The reaction mixture (250 μl) contained 4 μg human CPB (native or mutant) and 0.5 mM Hipp-Asp or Hipp-Glu in 0.025 M Tris-HCL, pH 7.5. Samples were incubated for 5 hr at 37° C. The reactions were terminated by the addition of 250 μl of 80% methanol, 20% distilled water, 0.2% trifluoro acetic acid and the amount of hippuric acid generated was quantified by HPLC.
(§4) HPLC analysis was carried out using a Hewlett Packard 1090 Series 11 (with diode array) HPLC system. Samples (50 μl) were injected onto a Hichrom Hi-RPB column (25 cm) and separated using a mobile phase of 40% methanol, 60% distilled water, 0.1% trifluoro acetic acid at a flow rate of 1 ml/min. The amount of product (hippuric acid) produced was determined from calibration curves generated with known amounts of hippuric acid (Sigma-H6375). The results are shown in Table 1 and are expressed as the percentage conversion of substrate into product in 5 hr at 37° C. with 4 μg enzyme.

[3] = Conversion of Hipp-Glu to hippuric acid by mutant and native human CPB, HPLC assay (Example 6); assay type: biochemical; settings: 5 hr at 37° C.; 4 μg enzyme; 0.5 mM substrate
Experimental: as §2, §3, §4

[4] = Conversion of Hipp-Arg to hippuric acid by mutant and native human CPB, HPLC assay (Example 6); assay type: biochemical; settings: 5 hr at 37° C.; 4 μg enzyme
Experimental: as §2, §3, §4

[5] = system: LoVo colorectal tumour cells; settings: 100 μg enzyme added to assay wells containing glutamic acid prodrug
[6] = Km and kcat of HCPB mutants with Hipp-Glu (Example 7); assay type: biochemical; settings: Hipp-Glu 0.25-8.0 mM; pH 7.5; 5 h at 37° C.
Experimental: Hipp-Glu and Hipp-Asp were diluted in range 0.25-8.0 mM and 0.25-5.0 mM respectively in 0.025 M Tris-HCL buffer, pH 7.5. Where necessary substrate samples were adjusted to pH 7.5 with 1M NaOH.
Samples were incubated for 5 h at 37° C. Reactions were terminated by the addition of 500 μl methanol/distilled water (80/20) containing 0.2% TFA. The amount of hippuric acid produced was quantified by HPLC as described in Example 6.
Km and Vmax values were calculated using the ENZFITTER software programme (Biosoft, Perkin Elmer).

[7] = Conversion of Hipp-Glu by purified HCPB mutants, 30 minutes, HPLC (Example 17); assay type: biochemical; settings: 0.5 mM substrate, 30 minutes at 37° C.
In short: (§5)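 Purified human CPB mutants were incubated with hippuryl-L-Arg, -Glu or -Asp for 30 min at 37 °C, then stopped with acidic aqueous methanol. Hippuric acid was quantified by HPLC (20% methanol/50 mM phosphate pH 6.5, 230 nm). Values are % substrate converted to hippuric acid in 30 min.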

[8] = Conversion of Hipp-Asp by purified HCPB mutants, 30 minutes, HPLC (Example 17); assay type: biochemical; settings: 0.5 mM substrate, 30 minutes at 37° C.
In short: as §5

[9] = Conversion of Hipp-Arg by purified HCPB mutants, 30 minutes, HPLC (Example 17); assay type: biochemical; settings: 0.5 mM substrate, 30 minutes at 37° C.
In short: as §5

[10] = Conversion of Hipp-Glu by periplasmic shockate of HCPB mutants, 24 h (Example 18); assay type: biochemical; settings: for Hipp-Glu (% conversion): 24 h at 37° C.
[11] = Conversion of Hipp-Asp by periplasmic shockate of HCPB mutants, 24 h (Example 18); assay type: biochemical; settings: 24 h at 37° C.
In short: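 Crude E. coli periplasmic shockate of each HCPB mutant was incubated with substrate for 24 h at 37° C, as neat or diluted shockate (1 in 10 or 1 in 100 for [G251T,D253K]HCPB; 1 in 50 for other mutants). Hippuric acid formed was quantified by HPLC. Values are percent conversion of substrate to product in 24 h.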

[12] = Conversion of Hipp-Arg by periplasmic shockate of HCPB mutants, 24 h (Example 18); assay type: biochemical; settings: 24 h at 37° C.
Experimental: The activity of [G251T,D253K]HCPB was measured using the assay conditions described in Example 17 but using either 50 μl of a neat or 1 in 10 or 1 in 100 dilution of [G251T,D253K]HCPB crude E.coli periplasmic shockate (shockate) sample in place of purified enzyme. Samples were incubated for 24 h at 37° C. […] For other HCPB mutants, the reaction volume was 250 μl and contained 125 μl of neat shockate or 1 in 50 dilution of shockate. The shockate samples were prepared as described in Example 16. The amount of Hippuric acid produced in 24 h was quantified by HPLC as described in Example 17 and the results are shown in Table 6 and are expressed as the percentage conversion of substrate into product in 24 h at 37° C.

[13] = Conversion of prodrug of Example 24 to drug of Example 25 by HCPB mutants, HPLC (Example 20); assay type: biochemical; settings: enzyme 1.5 μg/ml; 0.5 mM prodrug of Example 24; 5 minutes at 37° C.
Experimental: The reaction was stopped by adding MeCN (500 μl) plus 0.2% Trifluoroacetic acid. The amount of drug produced was then quantified by HPLC.
HPLC separation was carried out as described in Example 6 except that a mobile phase of 70% MeCN, 30% distilled water and 0.1% trifluoroacetic acid was used to achieve separation of prodrug (retention time 3.8 minutes) and drug (retention time 4.9 minutes) and the compounds were detected at 260 nm. The amount of drug produced was quantified from calibration curves generated with known amounts of drug.
The amount of [Q54R,D145A,D253K]HCPB and [G251T,D253K]HCPB mutants was reduced to 0.75 μg in the reaction mixture.

[14] = HCPB activity of COS-7 cell supernatants against Hipp-Arg (5 h assay); assay type: biochemical; settings: COS-7 cell supernatant 250 μl, co-transfection with prepro sequence
Experimental: as §1
For expression in eukaryotic cells, vectors containing genes capable of expressing preHCPB and the prepro sequence were cotransfected into COS-7 cells. COS cells are an African green monkey kidney cell line, CV-1, transformed with an origin-defective SV40 virus and have been widely used for short-term transient expression of a variety of proteins because of their capacity to replicate circular plasmids containing an SV40 origin of replication to very high copy number. There are two widely available COS cell clones, COS-1 and COS-7. The basic methodology for transfection of COS cells is described by Bebbington in Methods: A Companion to Methods in Enzymology (1991) 2, p. 141. […] Cell supernatants (250 μl) were analysed for HCPB activity against Hipp-Arg (5 h assay) as described in Reference Example 3. […]

[15] = shockate concentration in reaction mixture 1 %
[16] = shockate concentration in reaction mixture 10 %

B1: Native HCPB: purified recombinant native human pancreatic carboxypeptidase B (protein, UniProt P15086 111-417, looked up)
Carboxypeptidase B: ATGHSYEKYNKWETIEAWTQQVATENPALISRSVIGTTFEGRAIYLLKVGKAGQNKPAIFMDCGFHAREWISPAFCQWFVREAVRTYGREIQVTELLDKLDFYVLPVLNIDGYIYTWTKSRFWRKTRSTHTGSSCIGTDPNRNFDAGWCEIGASRNPCDETYCGPAAESEKETKALADFIRNKLSSIKAYLTIHSYSQMMIYPYSYAYKLGENNAELNALAKATVKELASLHGTKYTYGPGATTIYPAAGGSDDWAYDQGIRYSFTFELRDTGRYGFLLPESQIRATCEETFLAIKYVASYVLEHLY
For B1, which Km [1] is on record?
The Km was 180 µM.

What about the “kcat against Hipp-Arg” value [1] of the same molecule?
Its value is 65 s⁻¹.

What about the “Hipp-Asp (% conversion to Hippuric acid)” value [2] of the same molecule?
The value was 0%.

And the “Hipp-Glu (% conversion to Hippuric acid)” value [3]?
The value was 0%.

And the “Hipp-Arg (% conversion to Hippuric acid)” value [4]?
Its value is 100%.

What about the “cytotoxicity of the glutamic acid prodrug with enzyme added” value [5] of the same molecule?
Its value is “does not significantly enhance”.

B2: [G251T,D253K]: HCPB mutant with G251T and D253K, (His)6-c-myc tag (protein, UniProt P15086 111-417, looked up, variant G251T D253K)
Carboxypeptidase B: B1 Carboxypeptidase B with G251T, D253K
modifications: (His)6-c-myc tag
Which Km [6] does the source give for B2 here?
Its Km is 1100 µM.

What about the “kcat, Hipp-Glu” value [6] of the same molecule?
Its value is 75 s⁻¹.

What about the “Hipp-Glu (% conversion)” value ([7]; enzyme 0.02 μg/ml) of the same molecule?
Its value is 8.2%.

What about the “Hipp-Glu (% conversion)” value ([7]; enzyme 25 μg/ml) of the same molecule?
Its value is 100%.

What about the “Hipp-Asp (% conversion)” value ([8]; enzyme 0.02 μg/ml) of the same molecule?
Its value is 0%.

What about the “Hipp-Asp (% conversion)” value ([8]; enzyme 25 μg/ml) of the same molecule?
Its value is 14%.

And the “Hipp-Arg (% conversion)” value ([9]; enzyme 0.02 μg/ml)?
The value was 0%.

And the “Hipp-Arg (% conversion)” value ([9]; enzyme 25 μg/ml)?
The value was 5.2%.

And the “Hipp-Glu (% conversion)” value ([10]; shockate concentration in reaction mixture 0.1 %)?
The value was 60%.

What about the “Hipp-Glu (% conversion)” value [10, 15] of the same molecule?
Its value is 93%.

What about the “Hipp-Glu (% conversion)” value [10, 16] of the same molecule?
The value was 100%.

And the “fold more active against Hipp-Glu compared to Hipp-Arg” value ([10]; shockate samples, 24 h)?
The value was “over 900 fold”.

And the “fold more active than D253K at converting Hipp-Glu to hippuric acid” value ([10]; shockate samples, 24 h)?
The value was “at least 50 fold”.

And the “Hipp-Asp (% conversion)” value [11, 15]?
Its value is 0%.

What about the “Hipp-Asp (% conversion)” value [11, 16] of the same molecule?
Its value is 2.6%.

And the “Hipp-Arg (% conversion)” value [12, 15]?
The value was 0.1%.

And the “Hipp-Arg (% conversion)” value [12, 16]?
Its value is 0.8%.

What about the “Prodrug Hydrolysis (%)” value [13] of the same molecule?
The value was 36.0%.

B3: HCPB: mature HCPB in supernatant of COS-7 cells co-transfected with preHCPB and prepro sequence plasmids (protein, UniProt P15086 111-417, looked up)
Carboxypeptidase B: B1 Carboxypeptidase B
Which Hipp-Arg substrate hydrolysed [14] does the source give for B3 here?
The Hipp-Arg substrate hydrolysed was 61%.
